Columns and labels:
Experiment in all cases: two-hybrid; pairwise split-ubiquitin yeast two-hybrid of four baits (slToc159-1AGM, -1GM, -2AGM, -2GM) with isolated prey vectors in NMY51; qualitative PXG assay and quantitative β-galactosidase activity in 96-well plates, 60 min, mean of three experiments
[1] = target: slToc159-2AGM bait protein (tomato (Solanum lycopersicum))
[2] = target: slToc159-1AGM bait protein (tomato (Solanum lycopersicum))
[3] = target: slToc159-1GM bait protein (tomato (Solanum lycopersicum))
[4] = target: slToc159-2GM bait protein (tomato (Solanum lycopersicum))

Substance	increase in interaction strength (β-galactosidase activity) against slToc159-2GM [1]	decrease in interaction strength (β-galactosidase activity) against slToc159-1AGM [3]	also measured
3-oxoacyl-[acyl-carrier-protein] reductase (natural protein)	61.7%	–	–
Cell division protein FtsZ (natural protein)	–	–	relative increase in interaction strength (β-galactosidase activity) against slToc159-1GM [2]: 66.1%
Chlorophyll a-b binding protein 7 (natural protein)	–	65.4%	increase in interaction strength (β-galactosidase activity) against slToc159-2AGM [4]: 21.7%
Chlorophyll a-b binding protein 8 (natural protein)	–	49.2%	–
Chlorophyll a-b binding protein (CAB11) (natural protein)	–	20.7%	–
Chlorophyll a-b binding protein CP24 (natural protein)	–	–	decrease in affinity (β-galactosidase activity) against Toc159-2AGM [4]: 75.5%
Chlorophyll a/b binding protein Cab-3C (natural protein)	–	38.4%	increase in interaction strength (β-galactosidase activity) against slToc159-2AGM [4]: 1360%
Glutamine synthetase (natural protein)	–	–	relative increase in interaction strength (β-galactosidase activity) against slToc159-1GM [2]: 28.8%
Heat shock cognate 70 kDa protein (natural protein)	406%	–	–
Hop-interacting protein (THI026) (natural protein)	152%	–	–
Photosystem I reaction center subunit II (natural protein)	–	62%	increase in interaction strength (β-galactosidase activity) against slToc159-2AGM [4]: 57.8%
Photosystem I reaction center subunit III (natural protein)	–	46.3%	decrease in affinity (β-galactosidase activity) against Toc159-2AGM [4]: 86%
Photosystem I reaction center subunit IV A (natural protein)	–	–	decrease in affinity (β-galactosidase activity) against Toc159-2AGM [4]: 53.7%
Photosystem I subunit O (natural protein)	–	93.8%	decrease in affinity (β-galactosidase activity) against Toc159-2AGM [4]: 72.7%
Photosystem II 23 kDa protein (natural protein)	–	88.7%	decrease in affinity (β-galactosidase activity) against Toc159-2AGM [4]: 89.2%
RuBisCO small subunit 1 (natural protein)	–	–	increase in interaction strength (β-galactosidase activity) against slToc159-2AGM [4]: 79.9%
RuBisCO small subunit 2A (natural protein)	–	62.4%	increase in interaction strength (β-galactosidase activity) against slToc159-2AGM [4]: 615%
RuBisCO small subunit 3 (natural protein)	–	24.5%	decrease in affinity (β-galactosidase activity) against Toc159-2AGM [4]: 37.1%
Serine hydroxymethyl transferase (natural protein)	889%	–	–
Stearoyl-[acyl-carrier-protein] 9-desaturase (natural protein)	81.1%	–	relative increase in interaction strength (β-galactosidase activity) against slToc159-1GM [2]: 866%
SufE-like protein 1 (natural protein)	509%	–	–
photosystem II subunit S (natural protein)	–	76.6%	–
thiamine biosynthesis protein (ThiC) (natural protein)	81.6%	–	relative increase in interaction strength (β-galactosidase activity) against slToc159-1GM [2]: 476%

Reference: article PMC9654457
